Measured values from PMC4609965 (2015).

B1: beta-synuclein 115-134 (peptide)
chain: EGESYEDPPQEEYQEYEPEA
B2: alpha-synuclein 125-140 (peptide)
chain: YEMPSEEGYQDYEPEA

Biological target: alpha-synuclein (Homo sapiens, UniProt P37840)
Test: NMR PRE titration

Row | Binder | Kd [µM]
1 | B1 | ~100
2 | B2 | ~500
